Assay results taken from article PMC9278407, “Structure and regulation of the nuclear exosome targeting complex guides RNA substrates to the exosome” (Molecular Cell, 2022).

Tests used:
eYFP-(GS)3-MTR4(75-1042) [1] = target: T1, eYFP-(GS)3-MTR4(75-1042) (human, UniProt P42285 75-1042); experiment: MST
T1 chain: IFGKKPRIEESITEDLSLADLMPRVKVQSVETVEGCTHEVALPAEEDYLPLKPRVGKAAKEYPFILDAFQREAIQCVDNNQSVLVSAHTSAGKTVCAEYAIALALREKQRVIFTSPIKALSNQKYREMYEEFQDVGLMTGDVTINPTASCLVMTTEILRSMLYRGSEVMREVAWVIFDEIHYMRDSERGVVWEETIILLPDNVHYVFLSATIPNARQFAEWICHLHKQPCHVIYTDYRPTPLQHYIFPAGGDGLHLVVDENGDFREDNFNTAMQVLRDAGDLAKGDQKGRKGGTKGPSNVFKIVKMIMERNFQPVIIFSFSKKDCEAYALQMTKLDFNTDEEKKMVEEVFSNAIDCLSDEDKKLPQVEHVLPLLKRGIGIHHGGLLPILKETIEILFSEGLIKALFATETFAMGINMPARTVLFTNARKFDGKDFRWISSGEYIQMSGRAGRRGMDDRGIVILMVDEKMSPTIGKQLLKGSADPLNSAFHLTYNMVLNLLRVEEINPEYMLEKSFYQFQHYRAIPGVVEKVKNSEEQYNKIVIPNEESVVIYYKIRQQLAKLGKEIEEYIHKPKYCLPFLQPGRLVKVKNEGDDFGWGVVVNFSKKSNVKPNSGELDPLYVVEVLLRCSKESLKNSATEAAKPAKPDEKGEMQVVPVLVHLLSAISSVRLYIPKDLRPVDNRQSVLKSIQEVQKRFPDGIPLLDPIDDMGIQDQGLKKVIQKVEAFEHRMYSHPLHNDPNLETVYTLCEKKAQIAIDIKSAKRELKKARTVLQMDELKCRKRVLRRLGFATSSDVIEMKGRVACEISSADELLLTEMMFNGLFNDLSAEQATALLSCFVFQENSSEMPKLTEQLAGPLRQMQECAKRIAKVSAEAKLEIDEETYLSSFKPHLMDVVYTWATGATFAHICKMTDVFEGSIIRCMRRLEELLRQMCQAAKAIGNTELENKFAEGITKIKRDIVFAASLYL

eYFP-(GS)3-MTR4(75-1042) [2] = target: T2, eYFP-(GS)3-MTR4(75-1042) (human, UniProt P42285 75-1042); experiment: MST; eYFP-(GS)3-MTR4(75-1042) fixed at 50 nM, increasing ZCCHC8/RBM7; 50 mM HEPES-NaOH pH 7.5, 150 mM NaCl, 2 mM DTT, 10% glycerol, 0.1% Pluronic F-127; room temperature; triplicates; conditions: both partners purified
T2 construct: MTR4, human, residues 75-1042, joined to eYFP by a (GS)3 linker; also called eYFP-tagged MTR4; source: E. coli BL21 Star (DE3) pRARE, purified; not shown: eYFP, N-terminal, kept
T2 sequence (looked up): T1 chain

MTR4 (full length) [3] = target: T3, MTR4 (full length) (human, UniProt P42285 1-1042); experiment: cryo-EM structure; NEXT^S at 15 μM with 1.2 molar excess RNA-U20 and 2 mM AMPPNP, 20 mM HEPES-NaOH pH 7.5, 150 mM NaCl, 2 mM DTT, 2 mM MgCl2; cross-linked with 1 mM BS3; conditions: both partners purified
T3 construct: MTR4, human, full length; also called MTR4A; MTR4B; not shown: His6, N-terminal, cleaved; GST, N-terminal, cleaved
T3 sequence (looked up): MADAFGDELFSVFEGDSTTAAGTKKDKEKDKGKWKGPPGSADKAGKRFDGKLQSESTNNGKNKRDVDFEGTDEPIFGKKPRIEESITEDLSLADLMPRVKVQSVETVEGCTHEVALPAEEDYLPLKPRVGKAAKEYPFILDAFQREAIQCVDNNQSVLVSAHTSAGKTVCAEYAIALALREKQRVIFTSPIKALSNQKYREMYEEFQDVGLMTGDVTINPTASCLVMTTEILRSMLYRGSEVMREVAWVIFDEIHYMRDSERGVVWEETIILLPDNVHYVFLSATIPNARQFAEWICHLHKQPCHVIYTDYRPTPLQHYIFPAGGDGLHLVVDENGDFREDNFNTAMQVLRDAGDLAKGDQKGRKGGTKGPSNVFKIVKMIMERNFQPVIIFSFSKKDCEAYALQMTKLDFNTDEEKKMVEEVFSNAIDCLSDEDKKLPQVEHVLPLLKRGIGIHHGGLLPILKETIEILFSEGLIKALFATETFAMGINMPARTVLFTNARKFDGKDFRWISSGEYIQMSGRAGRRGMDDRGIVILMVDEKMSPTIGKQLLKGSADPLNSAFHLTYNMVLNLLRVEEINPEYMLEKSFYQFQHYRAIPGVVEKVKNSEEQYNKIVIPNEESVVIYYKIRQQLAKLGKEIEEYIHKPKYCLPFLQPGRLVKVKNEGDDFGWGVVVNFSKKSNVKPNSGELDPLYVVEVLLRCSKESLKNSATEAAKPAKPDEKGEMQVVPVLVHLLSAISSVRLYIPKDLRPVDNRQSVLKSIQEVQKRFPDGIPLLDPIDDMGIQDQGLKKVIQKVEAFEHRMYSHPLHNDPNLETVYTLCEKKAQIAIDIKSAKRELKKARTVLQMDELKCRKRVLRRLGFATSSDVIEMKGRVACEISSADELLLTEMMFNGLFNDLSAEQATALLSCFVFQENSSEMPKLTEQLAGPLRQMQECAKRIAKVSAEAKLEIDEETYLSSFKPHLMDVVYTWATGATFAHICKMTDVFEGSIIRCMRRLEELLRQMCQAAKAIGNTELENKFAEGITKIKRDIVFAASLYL

[4] = target: the molecule itself; experiment: as above
MTR4 (full length) [5] = target: T3, MTR4 (full length); experiment: SEC; pre-assembled complexes of full-length MTR4, RBM7(RRM) and N-terminally truncated ZCCHC8 constructs ending at 337; Superdex 200 Increase 3.2/300; 20 mM Hepes-NaOH pH 7.5, 150 mM NaCl, 2 mM DTT; 300 pmol in 30 μL injected; peak fractions on SDS-PAGE; conditions: both partners purified
[6] = target: the molecule itself; experiment: as above
MTR4 (full length) [7] = target: T3, MTR4 (full length); experiment: cryo-EM structure; NEXT^L at 2 μM with equimolar 5'-hairpin-U60 RNA and 2 mM AMPPNP, 20 mM HEPES-NaOH pH 7.5, 50 mM NaCl, 2 mM DTT, 2 mM MgCl2; cross-linked with 0.03% glutaraldehyde; conditions: both partners purified

B1: dimeric ZCCHC8(41-337)/RBM7(RRM) (complex)
chain 1: ENGVGDAELRERLRQCEETIEQLRAENQELKRKLNILTRPSGILVNDTKLDGPILQILFMNNAISKQYHQEIEEFVSNLVKRFEEQQKNDVEKTSFNLLPQPSSIVLEEDHKVEESCAIKNNKEAFSVVGSVLYFTNFCLDKLGQPLLNENPQLSEGWEIPKYHQVFSHIVSLEGQEIQVKAKRPKPHCFNCGSEEHQMKDCPMPRNAARISEKRKEYMDACGEANNQNFQQRYHAEEVEERFGRFKPGVISEELQDALGVTDKSLPPFIYRMRQLGYPPGWLKEAELENSGLALYD
chain 2: MGAAAAEADRTLFVGNLETKVTEELLFELFHQAGPVIKVKIPKDKDGKPKQFAFVNFKHEVSVPYAMNLLNGIKLYGRPIKIQFRSGSSHAPQDVSLS
Q: B1 was tested. Which Kd (eYFP-(GS)3-MTR4(75-1042) [1]) did it give?
A: 120 nM

B2: monomeric ZCCHC8(177-337)/RBM7(RRM) (complex, human)
chain 1: NFCLDKLGQPLLNENPQLSEGWEIPKYHQVFSHIVSLEGQEIQVKAKRPKPHCFNCGSEEHQMKDCPMPRNAARISEKRKEYMDACGEANNQNFQQRYHAEEVEERFGRFKPGVISEELQDALGVTDKSLPPFIYRMRQLGYPPGWLKEAELENSGLALYD
chain 2: B1 chain 2
notes: RBM7, human, residues 1-98 with the RRM domain; also called monomeric ZCCHC8-RBM7 unit; source: E. coli BL21 Star (DE3) pRARE, co-expressed and co-purified; not shown: His6, N-terminal, cleaved; GST, N-terminal, cleaved; Z tag or SUMO, N-terminal, cleaved; copies: 1 + 1
Q: For B2, which Kd (eYFP-(GS)3-MTR4(75-1042) [1]) is on record?
A: 540 nM

Q: Does B2 bind (eYFP-(GS)3-MTR4(75-1042) [2])?
A: binds

B3: ZCCHC8 (residues 41-337) (domain or fragment, human, UniProt Q6NZY4 41-337, looked up)
chain: B1 chain 1
notes: also called ZCCHC8^S; not shown: His6, N-terminal, cleaved; GST, N-terminal, cleaved
Q: Does B3 bind (MTR4 (full length) [3])?
A: binds

Q: And the “stoichiometry N” value [4]?
A: 2

B4: ZCCHC8 (residues 91-337) (domain or fragment, human, UniProt Q6NZY4 91-337, looked up)
chain: DGPILQILFMNNAISKQYHQEIEEFVSNLVKRFEEQQKNDVEKTSFNLLPQPSSIVLEEDHKVEESCAIKNNKEAFSVVGSVLYFTNFCLDKLGQPLLNENPQLSEGWEIPKYHQVFSHIVSLEGQEIQVKAKRPKPHCFNCGSEEHQMKDCPMPRNAARISEKRKEYMDACGEANNQNFQQRYHAEEVEERFGRFKPGVISEELQDALGVTDKSLPPFIYRMRQLGYPPGWLKEAELENSGLALYD
notes: source: E. coli BL21 Star (DE3) pRARE, co-expressed and co-purified with RBM7(1-98); not shown: His6, N-terminal, cleaved; GST or SUMO, N-terminal, cleaved
Q: Does B4 bind (MTR4 (full length) [5])?
A: binds

Q: Does B4 bind [6]?
A: binds

B5: ZCCHC8 (residues 177-337) (domain or fragment, human, UniProt Q6NZY4 177-337, looked up)
chain: B2 chain 1
notes: source: E. coli BL21 Star (DE3) pRARE, co-expressed and co-purified with RBM7(1-98); not shown: His6, N-terminal, cleaved; GST, N-terminal, cleaved
Q: Does B5 bind (MTR4 (full length) [5])?
A: binds

B6: ZCCHC8 deletion mutant Δ416-506 (natural protein, human)
chain: MAAEVYFGDLELFEPFDHPEESIPKPVHTRFKDDDGDEEDENGVGDAELRERLRQCEETIEQLRAENQELKRKLNILTRPSGILVNDTKLDGPILQILFMNNAISKQYHQEIEEFVSNLVKRFEEQQKNDVEKTSFNLLPQPSSIVLEEDHKVEESCAIKNNKEAFSVVGSVLYFTNFCLDKLGQPLLNENPQLSEGWEIPKYHQVFSHIVSLEGQEIQVKAKRPKPHCFNCGSEEHQMKDCPMPRNAARISEKRKEYMDACGEANNQNFQQRYHAEEVEERFGRFKPGVISEELQDALGVTDKSLPPFIYRMRQLGYPPGWLKEAELENSGLALYDGKDGTDGETEVGEIQQNKSVTYDLSKLVNYPGFNISTPRGIPDEWRIFGSIPMQACQQKDVFANYLTSNFQAPGVKSGSGAVDEDALTLEELEEQQRRIWAALEQAESVNSDSDVPVDTPLTGNSVASSPCPNELDLPVPEGKTSEKQTLDEPEVPEIFTKKSEAGHASSPDSEVTSLCQKEKAELAPVNTEGALLDNGSVVPNCDISNGGSQKLFPADTSPSTATKIHSPIPDMSKFATGITPFEFENMAESTGMYLRIRSLLKNSPRNQQKNKKASE
notes: ZCCHC8, human, deletion mutant lacking residues 416-506 but still including the C-terminal domain; Construct adapted from Puno and Lima (2018); also called ZCCHC8^L; hZCCHC8(Δ416-506); source: E. coli BL21 Star (DE3) pRARE, co-expressed and co-purified with RBM7(1-98); not shown: His6, N-terminal, cleaved; SUMO, N-terminal, cleaved
Q: Does B6 bind (MTR4 (full length) [7])?
A: binds
